This is an account of results in paper PMC11656211.

The target of this experiment is TLR4/MD2 complex on HEK293-hTLR4-MD2-CD14 cells (human) (UniProt O00206).

Ends that are not written are not given here.

GYYYPSDPNTFYAPPYSA (also: HiLyte Fluor 488 label, position not given here) [HiLyte Fluor 488-labeled GK-1]: the uptake of GK-1-HF488 (MFI by flow cytometry after trypsin treatment), HEK293-TLR4 cells against HEK293-null cells, 1 h at 4 °C, 5 to 50 uM stood at 5 fold and the uptake of GK-1-HF488 (MFI by flow cytometry after trypsin treatment), HEK293-TLR4 cells against HEK293-null cells, 1 h at 37 °C, 5 to 50 uM was less than 30 fold.
